Data taken from PMC10516056.
“And” between values parts separate entries of the source, which are not always exact repeats. Equal values may be shown once.

Assays:
[1] = target: SPARTA heterodimer (TIR-APAZ/short pAgo complex) from Crenotalea thermophila (Crenotalea thermophila); assay: cryo-EM structure
[2] = target: SPARTA heterodimer (TIR-APAZ/short pAgo complex) from Crenotalea thermophila (Crenotalea thermophila); assay: mass photometry

“SPARTA heterodimer (TIR-APAZ/short pAgo complex) from Crenotalea thermophila” was tested, and the stoichiometry N [1] was 4 and the stoichiometry N [2] was 2 and 4.
